Results on 25 molecules are retold here after patent publication US20230295259A1 (Protagonist Therapeutics, Inc., priority 2020, published 2023).

Starred links: 1 amine or outer side, 2 acyl side, 3 side chain; linkers in the order of their positions; H or OH if unused. Non-standard residues stand in square brackets, D forms with d. Groups on a side chain read outwards from the residue. *: point of attachment. Gal = N6-(4-(galactopyranosyloxy)butanoyl) on the lysine side chain; C18 diacid = O=C(O)CCCCCCCCCCCCCCCCC(=O)*; Dip = N[C@H](C(=O)O)C(c1ccccc1)c1ccccc1; γGlu = O=C(O)[C@H](CCC(=O)[*:2])N[*:1]; Palmitoyl = CCCCCCCCCCCCCCCC(=O)*; β3hF = N[C@H](CC(=O)O)Cc1ccccc1; 4Amb = NCc1ccc(C(=O)O)cc1; Isovaleryl = CC(C)CC(=O)*; NMeA = CN[C@@H](C)C(=O)O; AEEA = NCCOCCOCC(=O)O; Acryloyl = C=CC(=O)*; Ahx = NCCCCCC(=O)O

To fix the notation:
T1: human ferroportin (SLC40A1) fused in frame with GFP, stably expressed in HEK293 cells (human, UniProt Q9NP59 1-571)
T1 sequence (looked up): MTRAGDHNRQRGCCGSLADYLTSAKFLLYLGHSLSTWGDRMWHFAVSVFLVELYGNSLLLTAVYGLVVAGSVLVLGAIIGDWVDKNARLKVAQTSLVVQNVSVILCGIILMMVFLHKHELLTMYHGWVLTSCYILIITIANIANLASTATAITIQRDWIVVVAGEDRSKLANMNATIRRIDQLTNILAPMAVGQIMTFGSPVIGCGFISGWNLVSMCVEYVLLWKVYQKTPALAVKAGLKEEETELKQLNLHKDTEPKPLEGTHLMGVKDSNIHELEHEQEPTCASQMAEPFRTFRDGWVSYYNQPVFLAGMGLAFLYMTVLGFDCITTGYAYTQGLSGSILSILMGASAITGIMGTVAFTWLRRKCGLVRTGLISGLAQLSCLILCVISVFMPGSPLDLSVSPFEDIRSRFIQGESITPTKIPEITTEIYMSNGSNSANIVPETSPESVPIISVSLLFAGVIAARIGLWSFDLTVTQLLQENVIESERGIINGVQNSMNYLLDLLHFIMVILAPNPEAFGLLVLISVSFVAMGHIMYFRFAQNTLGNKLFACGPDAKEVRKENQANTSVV

B1: Seq. No. 551 (peptide)
peptide: XEXHXPCIXXXXC
modifications: not fully specified; [Isovaleric Acid]-E-[Lys(Acrylamide)]-H-[Dpa]-P-C-I-[(D)Lys]-[bhPhe]-[Lys(Ahx_Palm)]-[(D)Lys]-C-NH2
B2: Seq. No. 563 (peptide)
peptide: XETHXPCIXXXC
modifications: not fully specified; [Isovaleric Acid]-E-T-H-[Dpa]-P-C-I-[(D)Lys]-[bhPhe]-[Lys(1PEG2_1PEG2_IsoGlu_C18_Diacid)]-C-OH
B3: Seq. No. 552 (peptide)
peptide: XETXXPCIXXXXC
modifications: not fully specified; [Isovaleric Acid]-E-T-[Lys(Acrylamide)]-[Dpa]-P-C-I-[(D)Lys]-[bhPhe]-[Lys(Ahx_Palm)]-[(D)Lys]-C-NH2
B4: Seq. No. 565 (peptide)
peptide: XEXHXPCIXXXC
modifications: not fully specified; [Isovaleric Acid]-E-[N-(hydroxyethyl)Gly]-H-[Dpa]-P-C-I-[Lys(1PEG2_1PEG2_Ahx_C18_Diacid)]-[bhPhe]-[(D)Lys]-C-NH2
B5: Seq. No. 564 (peptide)
peptide: XETXXPCIXXXC
modifications: not fully specified; [Isovaleric Acid]-E-T-[N-(Imidazolethyl)Gly]-[Dpa]-P-C-I-[Lys(1PEG2_1PEG2_Ahx_C18_Diacid)]-[bhPhe]-[(D)Lys]-C-NH2
B6: Seq. No. 557 (peptide)
peptide: XXTHXPCIXXXC
modifications: not fully specified; [Isovaleric Acid]-[Dap]-T-H-[Dpa]-P-C-I-[Lys(1PEG2_1PEG2_Ahx_C18_Diacid)]-[bhPhe]-[(D)Lys]-C-NH2

The assay concerns the target T1, human ferroportin (SLC40A1) fused in …. The assay can be described thus: cell-based or functional assay.
Turning to Isovaleryl-ETHAPCI[dK][β3hF]K([Ahx-Palmitoyl])[dK]C-NH2 (not fully specified (bridges); cysteine pairing not given here) [Seq. No. 575], the “IC50: FPN internalisation” value is 83 nM.

Consider B1, for which the “IC50: FPN internalisation” value was 90 nM. Then B2, with 1190 nM. B3: the “IC50: FPN internalisation” value amounted to 48 nM.

Consider Isovaleryl-ETH[Dip]PCK(Gal)K([AEEA-AEEA-Ahx-C18 diacid])[β3hF][dK]C-NH2 (not fully specified (bridges); cysteine pairing not given here) [Seq. No. 561], for which the “IC50: FPN internalisation” value was 17.9 nM.

In the case of B4, the “IC50: FPN internalisation” value worked out at 18.7 nM.

In the case of Isovaleryl-ETH[Dip][NMeA]CI[dK][β3hF]K([Ahx-Palmitoyl])[dK]C-NH2 (not fully specified (bridges); cysteine pairing not given here) [Seq. No. 567], the “IC50: FPN internalisation” value was 30.8 nM.

Take Isovaleryl-ETH[Dip]PCA[dK][β3hF]K([Ahx-Palmitoyl])[dK]C-NH2 (not fully specified (bridges); cysteine pairing not given here) [Seq. No. 573]: the “IC50: FPN internalisation” value came to 6.47 nM. Turning to Isovaleryl-ETH[Dip]PCI[dK]K(Acryloyl)K([Ahx-Palmitoyl])[dK]C-NH2 (not fully specified (bridges); cysteine pairing not given here) [Seq. No. 556], the “IC50: FPN internalisation” value turned out to be 15.4 nM. Then Isovaleryl-ETH[Dip]PC[dK](Gal)K([AEEA-AEEA-Ahx-C18 diacid])[β3hF][dK]C-NH2 (not fully specified (bridges); cysteine pairing not given here) [Seq. No. 560], with 400 nM. As to Isovaleryl-ETH[Dip]PC[4Amb]K([AEEA-AEEA-Ahx-C18 diacid])[β3hF][dK]C-NH2 (not fully specified (bridges); cysteine pairing not given here) [Seq. No. 550], the “IC50: FPN internalisation” value worked out at 13.1 nM. With B5, the “IC50: FPN internalisation” value is 687 nM.

For the molecule Isovaleryl-ETH[Dip]PC[dK][β3hF]K([Ahx-Palmitoyl])[dK]C-NH2 (not fully specified (bridges); cysteine pairing not given here) [Seq. No. 571], the “IC50: FPN internalisation” value was found to be 31.2 nM. Take Isovaleryl-ETH[Dip]SCIK([AEEA-AEEA-γGlu-C18 diacid])[β3hF][dK]C-NH2 (not fully specified (bridges); cysteine pairing not given here) [Seq. No. 558]: the “IC50: FPN internalisation” value was 39.2 nM.

For the molecule Isovaleryl-ETH[Dip]PC[4Amb][β3hF]K([Ahx-Palmitoyl])[dK]C-NH2 (not fully specified (bridges); cysteine pairing not given here) [Seq. No. 566], the “IC50: FPN internalisation” value worked out at 31.8 nM.

As for Isovaleryl-ETH[Dip]K(Acryloyl)CI[dK][β3hF]K([Ahx-Palmitoyl])[dK]C-NH2 (not fully specified (bridges); cysteine pairing not given here) [Seq. No. 554], the “IC50: FPN internalisation” value worked out at 103 nM. Isovaleryl-ETH[Dip]PCI[dK]AK([Ahx-Palmitoyl])[dK]C-NH2 (not fully specified (bridges); cysteine pairing not given here) [Seq. No. 572]: the “IC50: FPN internalisation” value amounted to 8.47 nM. Then Isovaleryl-ETH[Dip]ACI[dK][β3hF]K([Ahx-Palmitoyl])[dK]C-NH2 (not fully specified (bridges); cysteine pairing not given here) [Seq. No. 574], with 10.2 nM; and Isovaleryl-ETH[Dip]LCI[dK][β3hF]K([Ahx-Palmitoyl])[dK]C-NH2 (not fully specified (bridges); cysteine pairing not given here) [Seq. No. 569], with 50.2 nM; and Isovaleryl-ETH[Dip]PCI[dK]LK([Ahx-Palmitoyl])[dK]C-NH2 (not fully specified (bridges); cysteine pairing not given here) [Seq. No. 568], with 11.8 nM.

For Isovaleryl-ETH[Dip]PC[dK](Acryloyl)[dK][β3hF]K([Ahx-Palmitoyl])[dK]C-NH2 (not fully specified (bridges); cysteine pairing not given here) [Seq. No. 555], the “IC50: FPN internalisation” value is 17.4 nM.

For {Cyclohexanoic Acid}-ETH[Dip]PCK([AEEA-AEEA-γGlu-C18 diacid])[β3hF][dK]C-NH2 (not fully specified (bridges); cysteine pairing not given here) [Seq. No. 562], the “IC50: FPN internalisation” value came out at 18.4 nM. On to Isovaleryl-ETHLPCI[dK][β3hF]K([Ahx-Palmitoyl])[dK]C-NH2 (not fully specified (bridges); cysteine pairing not given here) [Seq. No. 570], for which the “IC50: FPN internalisation” value came out at 12.7 nM. Then B6, with 14.2 nM; and Isovaleryl-ETHK(Acryloyl)PCI[dK][β3hF]K([Ahx-Palmitoyl])[dK]C-NH2 (not fully specified (bridges); cysteine pairing not given here) [Seq. No. 553], with 385 nM.
